Data on 1 molecule can be found in patent US20260226161A1.

The target of assay [1] is NKG2A expressed on KHYG-1 cells (endogenous) (human) (UniProt P26715). Nature of the assay: competition by flow cytometry on KHYG-1 cells: antibody varied, binding of HLA-E tetramer to NKG2A read as MFI. A general note: A flow cytometer gives signals particle by particle.
Assay [2] has the same target.
For assay [3], the target named is Human NKG2A & CD94 with mouse IgG2a Fc tag (AcroBiosystems) (human) (UniProt P26715). Briefly: SPR (Carterra), antibody on chip, soluble antigen.
Human NKG2A & CD94 with mouse IgG2a Fc tag (AcroBiosystems) (human), sequence (P26715 94-233 limits assumed, chain 1 of 2): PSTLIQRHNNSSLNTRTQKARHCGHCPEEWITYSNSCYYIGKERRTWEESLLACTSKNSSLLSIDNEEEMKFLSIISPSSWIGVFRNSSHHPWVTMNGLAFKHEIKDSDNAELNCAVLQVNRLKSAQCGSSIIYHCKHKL
Human NKG2A & CD94 with mouse IgG2a Fc tag (AcroBiosystems) (human), sequence (Q13241 32-179 limits assumed, chain 2 of 2, further chain): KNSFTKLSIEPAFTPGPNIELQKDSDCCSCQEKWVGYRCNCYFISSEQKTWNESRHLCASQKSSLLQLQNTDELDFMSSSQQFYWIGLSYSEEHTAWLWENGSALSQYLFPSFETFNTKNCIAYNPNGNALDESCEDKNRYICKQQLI
Assay [4] concerns the target NKG2A expressed on KHYG-1 cells (endogenous) (human) (UniProt P26715). Briefly: flow cytometry on KHYG-1 cells (endogenous NKG2A), MFI against Log [Ab] M.
For assay [5], the target named is cynomolgus NKG2A/CD94 (soluble antigen of the equilibrium assay) (cynomolgus) (UniProt Q68VD2). Briefly: SPR equilibrium response, Langmuir isotherm; antibody on chip, soluble antigen.
cynomolgus NKG2A/CD94 (soluble antigen of the equilibrium assay) (cynomolgus), sequence (NKG2A, as listed by the source limits assumed, chain 1 of 2): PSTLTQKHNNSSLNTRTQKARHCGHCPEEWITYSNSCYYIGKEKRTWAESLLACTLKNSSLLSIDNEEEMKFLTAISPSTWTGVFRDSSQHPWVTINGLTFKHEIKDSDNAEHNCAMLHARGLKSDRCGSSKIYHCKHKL
cynomolgus NKG2A/CD94 (soluble antigen of the equilibrium assay) (cynomolgus), sequence (CD94, as listed by the source limits assumed, chain 2 of 2): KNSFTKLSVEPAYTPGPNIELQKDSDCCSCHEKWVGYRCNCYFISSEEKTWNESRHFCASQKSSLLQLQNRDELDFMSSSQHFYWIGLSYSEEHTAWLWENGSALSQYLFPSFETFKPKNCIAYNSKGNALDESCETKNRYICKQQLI

NKG2A expressed on KHYG-1 cells (endogenous) (human), sequence (P26715 whole entry, chain 1 of 2): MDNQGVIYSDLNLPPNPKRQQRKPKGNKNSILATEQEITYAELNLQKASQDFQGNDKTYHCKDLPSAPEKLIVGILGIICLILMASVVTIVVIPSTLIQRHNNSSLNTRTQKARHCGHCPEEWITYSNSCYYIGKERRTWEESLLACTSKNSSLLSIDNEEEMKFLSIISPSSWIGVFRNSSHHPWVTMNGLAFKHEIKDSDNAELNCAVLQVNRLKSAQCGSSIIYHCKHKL
NKG2A expressed on KHYG-1 cells (endogenous) (human), sequence (Q13241 whole entry, chain 2 of 2, further chain): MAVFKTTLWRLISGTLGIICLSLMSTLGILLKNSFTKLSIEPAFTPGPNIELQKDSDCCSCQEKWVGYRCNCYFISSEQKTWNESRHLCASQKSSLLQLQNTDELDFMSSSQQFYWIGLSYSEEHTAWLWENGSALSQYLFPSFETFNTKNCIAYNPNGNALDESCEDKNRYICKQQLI

B1: Benchmark anti-NKG2A antibody (IgG4) (antibody, INN chains, looked up, V domains shown)
VH: QVQLVQSGAEVKKPGASVKVSCKASGYTFTSYWMNWVRQAPGQGLEWMGRIDPYDSETHYAQKLQGRVTMTTDTSTSTAYMELRSLRSDDTAVYYCARGGYDFDVGTLYWFFDVWGQGTTVTVSS
VL: DIQMTQSPSSLSASVGDRVTITCRASENIYSYLAWYQQKPGKAPKLLIYNAKTLAEGVPSRFSGSGSGTDFTLTISSLQPEDFATYYCQHHYGTPRTFGGGTKVEIK
modifications: IgG4
As usually defined, the Kd is the equilibrium constant for the complex coming apart. One may read the koff as the first-order rate constant of dissociation. Low values mean slow dissociation, high ones fast dissociation. One may read the kon as the second-order rate constant of association. High values mean faster complex formation, low ones slower complex formation. The term EC50 (read off the curve) denotes the concentration that produces a half-maximal response. A low value points to higher potency in that assay. For the molecule B1, the IC50 (read off the curve) in assay [1] stood at 0.3 nM. Besides, in assay [2], the % double-positive events (Q2: PD-L1+ LCL721.221-hPD-L1 cells coupled to NKG2A+ KHYG-1 cells), antibody at 2 nM; monospecific control, no bridging [cont.] stood at 0.59%. For the same molecule, in assay [3], the Kd was 0.06 nM, the koff was found to be 3e-05 s⁻¹ and the on-rate (kon) stood at 510000 M⁻¹ s⁻¹. Further, the EC50 (read off the curve) in assay [4] worked out at 0.04 nM. The Kd in assay [5] is 11 nM.
